B1: Heregulin (purified protein) (ligand)
chain: SHLVKCAEKEKTFCVNGGECFMVKDLSNPSRYLCKCPNEFTGDRCQNYVMASFYKHLGIEFMEAEELY
B2: EGF (purified protein) (ligand)
chain: HHHHHHIEGRNSDSECPLSHDGYCLHDGVCMYIEALDKYACNCWGYIGERCQYRDLKWWELR

Assays:
[1] = target: HER3 receptor (human, UniProt P21860); assay: cell-based or functional assay
[2] = target: human epidermal growth factor receptor (EGFR) (human, UniProt P00533); assay: cell-based or functional assay

| Binder | Calculated cell proliferation (EC50; picomolar) [1] [picomolar] | Calculated cell proliferation (EC50; picomolar) [2] [picomolar] |
| --- | --- | --- |
| B1 | 6150 |  |
| B2 |  | 1150 |

— patent US20090318350A1, “PAN-HER ANTAGONISTS AND METHODS OF USE” (published 2009)
